In the supplement of paper PMC5998384:

Key:
HeLa Kyoto [1] = experiment: solubility change mitosis vs G1/S (difference of NP-40 vs SDS log2 ratios) (log2 ratio difference); higher = more soluble in mitosis
HeLa Kyoto [2] = experiment: solubility in G1/S (NP-40 vs SDS abundance) (log2 ratio); higher = more soluble; settings: cell cycle stage: G1/S
HeLa Kyoto [3] = experiment: melting temperature (median over replicates), in situ; higher = more thermally stable
HeLa Kyoto [4] = experiment: thermal stability score vs G1/S (z-score of summed log2 fold changes over temperatures); higher = more thermally stable than in G1/S
[5] = cell cycle stage: early G1 (4.5 h after nocodazole release)
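For melting temperature (median over replicates), in situ in this document: HeLa Kyoto cells synchronized by double thymidine or nocodazole block, proteins quantified by TMT10plex mass spectrometry, three independent biological replicates.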
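For solubility change mitosis vs G1/S (difference of NP-40 vs SDS log2 ratios) in this document: synchronized HeLa Kyoto cells (double thymidine block for G1/S, nocodazole release for mitosis), protein amounts in NP-40 versus SDS lysates quantified by mass spectrometry, three biological replicates.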
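For solubility in G1/S (NP-40 vs SDS abundance) in this document: HeLa Kyoto cells arrested at G1/S by double thymidine block, proteins quantified by TMT10plex mass spectrometry in mild NP-40 versus SDS extracts, three biological replicates.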
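For thermal stability score vs G1/S (z-score of summed log2 fold changes over temperatures) in this document: synchronized HeLa Kyoto cells, proteins quantified by TMT10plex mass spectrometry, three biological replicates, mitosis taken 0.5 h after nocodazole release, G1/S directly after double thymidine block.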

Row | Sequence | solubility change mitosis (log2) (HeLa Kyoto [1]) | solubility in G1/S (log2) (HeLa Kyoto [2]) | melting temperature (HeLa Kyoto [3]; cell cycle stage: G1/S) | melting temperature (HeLa Kyoto [3]; cell cycle stage: mitosis) | thermal stability score (HeLa Kyoto [4]; [5]) | thermal stability score (HeLa Kyoto [4]; cell cycle stage: mitosis)
1 | MAETLSGLGDSGAAGAAALSSASSETGTRRLSDLRVIDLRAELRKRNVDSSGNKSVLMERLKKAIEDEGGNPDEIEITSEGNKKTSKRSSKGRKPEEEGVEDNGLEENSGDGQEDVETSLENLQDIDIMDISVLDEAEIDNGSVADCVEDDDADNLQESLSDSRELVEGEMKELPEQLQEHAIEDKETINNLDTSSSDFTILQEIEEPSLEPENEKILDILGETCKSEPVKEESSELEQPFAQDTSSVGPDRKLAEEEDLFDSAHPEEGDLDLASESTAHAQSSKADSLLAVVKREPAEQPGDGERTDCEPVGLEPAVEQSSAASELAEASSEELAEAPTEAPSPEARDSKEDGRKFDFDACNEVPPAPKESSTSEGADQKMSSPEDDSDTKRLSKEEKGRSSCGRNFWVSGLSSTTRATDLKNLFSKYGKVVGAKVVTNARSPGARCYGFVTMSTAEEATKCINHLHKTELHGKMISVEKAKNEPVGKKTSDKRDSDGKKEKSSNSDRSTNLKRDDKCDRKDDAKKGDDGSGEKSKDQDDQKPGPSERSRATKSGSRGTERTVVMDKSKGVPVISVKTSGSKERASKSQDRKSASREKRSVVSFDKVKEPRKSRDSESHSRVRERSEREQRMQAQWEREERERLEIARERLAFQRQRLERERMERERLERERMHVEHERRREQERIHREREELRRQQELRYEQERRPAVRRPYDLDRRDDAYWPEAKRAALDERYHSDFNRQDRFHDFDHRDRGRYPDHSVDRREGSRSMMGEREGQHYPERHGGPERHGRDSRDGWGGYGSDKRMSEGRGLPPPPRRDWGDHGRREDDRSWQGTADGGMMDRDHKRWQGGERSMSGHSGPGHMMNRGGMSGRGSFAPGGASRGHPIPHGGMQGGFGGQSRGSRPSDARFTRRY [SAFB] | 0.541 | -0.896 | 50 °C | 50.5 °C | 0.453 | 0.986
2 | MAETYDFLFKFLVIGSAGTGKSCLLHQFIENKFKQDSNHTIGVEFGSRVVNVGGKTVKLQIWDTAGQERFRSVTRSYYRGAAGALLVYDITSRETYNSLAAWLTDARTLASPNIVVILCGNKKDLDPEREVTFLEASRFAQENELMFLETSALTGENVEEAFLKCARTILNKIDSGELDPERMGSGIQYGDASLRQLRQPRSAQAVAPQPCGC [RAB4B] | -0.29 | 0.181 | 56.8 °C | 57.9 °C | -1.18 | -2.73
3 | MAFANLRKVLISDSLDPCCRKILQDGGLQVVEKQNLSKEELIAELQDCEGLIVRSATKVTADVINAAEKLQVVGRAGTGVDNVDLEAATRKGILVMNTPNGNSLSAAELTCGMIMCLARQIPQATASMKDGKWERKKFMGTELNGKTLGILGLGRIGREVATRMQSFGMKTIGYDPIISPEVSASFGVQQLPLEEIWPLCDFITVHTPLLPSTTGLLNDNTFAQCKKGVRVVNCARGGIVDEGALLRALQSGQCAGAALDVFTEEPPRDRALVDHENVISCPHLGASTKEAQSRCGEEIAVQFVDMVKGKSLTGVVNAQALTSAFSPHTKPWIGLAEALGTLMRAWAGSPKGTIQVITQGTSLKNAGNCLSPAVIVGLLKEASKQADVNLVNAKLLVKEAGLNVTTSHSPAAPGEQGFGECLLAVALAGAPYQAVGLVQGTTPVLQGLNGAVFRPEVPLRRDLPLLLFRTQTSDPAMLPTMIGLLAEAGVRLLSYQTSLVSDGETWHVMGISSLLPSLEAWKQHVTEAFQFHF [PHGDH] | 0.0444 | 0.233 | 55.9 °C | 55.4 °C | -2.03 | -1.42
4 | MAGAAPRVRYLAGFCCPLGGLAAGKPRVLCHEAEVFLSTGSELVYVYDQEGGLLTAAFRFPDQVWHLELLAPRRLLYALCARRGLYCLSLDHPGRSRSTSQDDRDSEDGDQPSPVIPVDPDACILPDAALCAFTLLDSVLVTLVQGPARWKMQLFEQPCPGEDPRPGGQIGEVELSSYTPPAGVPGKPAAPHFLPVLCSVSPSGSRVPHDLLGGSGGFTLEDALFGLLFGADATLLQSPVVLCGLPDGQLCCVILKALVTSRSAPGDPNALVKILHHLEEPVIFIGALKTEPQAAEAAENFLPDEDVHCDCLVAFGHHGRMLAIKASWDESGKLVPELREYCLPGPVLCAACGGGGRVYHSTPSDLCVVDLSRGSTPLGPEQPEEGPGGLPPMLCPASLNICSVVSLSASPRTHEGGTKLLALSAKGRLMTCSLDLDSEMPGPARMTTESAGQKIKELLSGIGNISERVSFLKKAVDQRNKALTSLNEAMNVSCALLSSGTGPRPISCTTSTTWSRLQTQDVLMATCVLENSSSFSLDQGWTLCIQVLTSSCALDLDSACSAITYTIPVDQLGPGARREVTLPLGPGENGGLDLPVTVSCTLFYSLREVVGGALAPSDSEDPFLDECPSDVLPEQEGVCLPLSRHTVDMLQCLRFPGLAPPHTRAPSPLGPTRDPVATFLETCREPGSQPAGPASLRAEYLPPSVASIKVSAELLRAALKDGHSGVPLCCATLQWLLAENAAVDVVRARALSSIQGVAPDGANVHLIVREVAMTDLCPAGPIQAVEIQVESSSLADICRAHHAVVGRMQTMVTEQATQGSSAPDLRVQYLRQIHANHETLLREVQTLRDRLCTEDEASSCATAQRLLQVYRQLRHPSLILL [FAAP100] | -0.00216 | 0.0643 | 54 °C | 52.6 °C | -0.383 | 0.0611
5 | MAGASELGTGPGAAGGDGDDSLYPIAVLIDELRNEDVQLRLNSIKKLSTIALALGVERTRSELLPFLTDTIYDEDEVLLALAEQLGNFTGLVGGPDFAHCLLPPLENLATVEETVVRDKAVESLRQISQEHTPVALEAYFVPLVKRLASGDWFTSRTSACGLFSVCYPRASNAVKAEIRQQFRSLCSDDTPMVRRAAASKLGEFAKVLELDSVKSEIVPLFTSLASDEQDSVRLLAVEACVSIAQLLSQDDLETLVMPTLRQAAEDKSWRVRYMVADRFSELQKAMGPKITLNDLIPAFQNLLKDCEAEVRAAAAHKVKELGENLPIEDRETIIMNQILPYIKELVSDTNQHVKSALASVIMGLSTILGKENTIEHLLPLFLAQLKDECPDVRLNIISNLDCVNEVIGIRQLSQSLLPAIVELAEDAKWRVRLAIIEYMPLLAGQLGVEFFDEKLNSLCMAWLVDHVYAIREAATNNLMKLVQKFGTEWAQNTIVPKVLVMANDPNYLHRMTTLFCINALSEACGQEITTKQMLPIVLKMAGDQVANVRFNVAKSLQKIGPILDTNALQGEVKPVLQKLGQDEDMDVKYFAQEAISVLALA [PPP2R1B] | -0.0603 | 0.391 | 49.2 °C | 49.6 °C | 1.92 | 2.96
6 | MAGGGGDLSTRRLNECISPVANEMNHLPAHSHDLQRMFTEDQGVDDRLLYDIVFKHFKRNKVEISNAIKKTFPFLEGLRDRDLITNKMFEDSQDSCRNLVPVQRVVYNVLSELEKTFNLPVLEALFSDVNMQEYPDLIHIYKGFENVIHDKLPLQESEEEEREERSGLQLSLEQGTGENSFRSLTWPPSGSPSHAGTTPPENGLSEHPCETEQINAKRKDTTSDKDDSLGSQQTNEQCAQKAEPTESCEQIAVQVNNGDAGREMPCPLPCDEESPEAELHNHGIQINSCSVRLVDIKKEKPFSNSKVECQAQARTHHNQASDIIVISSEDSEGSTDVDEPLEVFISAPRSEPVINNDNPLESNDEKEGQEATCSRPQIVPEPMDFRKLSTFRESFKKRVIGQDHDFSESSEEEAPAEASSGALRSKHGEKAPMTSRSTSTWRIPSRKRRFSSSDFSDLSNGEELQETCSSSLRRGSGSQPQEPENKKCSCVMCFPKGVPRSQEARTESSQASDMMDTMDVENNSTLEKHSGKRRKKRRHRSKVNGLQRGRKKDRPRKHLTLNNKVQKKRWQQRGRKANTRPLKRRRKRGPRIPKDENINFKQSELPVTCGEVKGTLYKERFKQGTSKKCIQSEDKKWFTPREFEIEGDRGASKNWKLSIRCGGYTLKVLMENKFLPEPPSTRKKRILESHNNTLVDPCEEHKKKNPDASVKFSEFLKKCSETWKTIFAKEKGKFEDMAKADKAHYEREMKTYIPPKGEKKKKFKDPNAPKRPPLAFFLFCSEYRPKIKGEHPGLSIDDVVKKLAGMWNNTAAADKQFYEKKAAKLKEKYKKDIAAYRAKGKPNSAKKRVVKAEKSKKKKEEEEDEEDEQEEENEEDDDK [SP100] | 0.113 | 0.0834 | 51.9 °C | 51.9 °C | -2.83 | -2.43
7 | MAGLSDLELRRELQALGFQPGPITDTTRDVYRNKLRRLRGEARLRDEERLREEARPRGEERLREEARLREDAPLRARPAAASPRAEPWLSQPASGSAYATPGAYGDIRPSAASWVGSRGLAYPARPAQLRRRASVRGSSEEDEDARTPDRATQGPGLAARRWWAASPAPARLPSSLLGPDPRPGLRATRAGPAGAARARPEVGRRLERWLSRLLLWASLGLLLVFLGILWVKMGKPSAPQEAEDNMKLLPVDCERKTDEFCQAKQKAALLELLHELYNFLAIQAGNFECGNPENLKSKCIPVMEAQEYIANVTSSSSAKFEAALTWILSSNKDVGIWLKGEDQSELVTTVDKVVCLESAHPRMGVGCRLSRALLTAVTNVLIFFWCLAFLWGLLILLKYRWRKLEEEEQAMYEMVKKIIDVVQDHYVDWEQDMERYPYVGILHVRDSLIPPQSRRRMKRVWDRAVEFLASNESRIQTESHRVAGEDMLVWRWTKPSSFSDSER [LEMD2] | 0.776 | -0.759 | 52.5 °C | 51.1 °C | -1.63 | -1.98
8 | MAGMVDFQDEEQVKSFLENMEVECNYHCYHEKDPDGCYRLVDYLEGIRKNFDEAAKVLKFNCEENQHSDSCYKLGAYYVTGKGGLTQDLKAAARCFLMACEKPGKKSIAACHNVGLLAHDGQVNEDGQPDLGKARDYYTRACDGGYTSSCFNLSAMFLQGAPGFPKDMDLACKYSMKACDLGHIWACANASRMYKLGDGVDKDEAKAEVLKNRAQQLHKEQQKGVQPLTFG [COA7] | 0.0461 | 0.586 | 52.9 °C | 52.7 °C | -1.59 | -1.97
9 | MAGRRVNVNVGVLGHIDSGKTALARALSTTASTAAFDKQPQSRERGITLDLGFSCFSVPLPARLRSSLPEFQAAPEAEPEPGEPLLQVTLVDCPGHASLIRTIIGGAQIIDLMMLVIDVTKGMQTQSAECLVIGQIACQKLVVVLNKIDLLPEGKRQAAIDKMTKKMQKTLENTKFRGAPIIPVAAKPGGPEAPETEAPQGIPELIELLTSQISIPTRDPSGPFLMSVDHCFSIKGQGTVMTGTILSGSISLGDSVEIPALKVVKKVKSMQMFHMPITSAMQGDRLGICVTQFDPKLLERGLVCAPESLHTVHAALISVEKIPYFRGPLQTKAKFHITVGHETVMGRLMFFSPAPDNFDQEPILDSFNFSQEYLFQEQYLSKDLTPAVTDNDEADKKAGQATEGHCPRQQWALVEFEKPVTCPRLCLVIGSRLDADIHTNTCRLAFHGILLHGLEDRNYADSFLPRLKVYKLKHKHGLVERAMDDYSVIGRSLFKKETNIQLFVGLKVHLSTGELGIIDSAFGQSGKFKIHIPGGLSPESKKILTPALKKRARAGRGEATRQEESAERSEPSQHVVLSLTFKRYVFDTHKRMVQSP [EEFSEC] | 0.119 | -0.248 | 49.3 °C | 51.2 °C | 2.19 | 3.12
